The conditions of data set [1]: cited from earlier work.
Data set [2] can be described thus: Esterase activity with α-naphthyl acetate. It counts as biochemical. The settings on record: substrate α-naphthyl acetate; for Km: read-out: α-NA activity Km.
Data set [3] is described as follows: Permethrin hydrolysis, radiometric partition assay (acid-labelled substrate). It counts as biochemical. The settings on record: sequential incubation of trans permethrin with E3WT and E4 from OP resistant aphid homogenates.
Method: Expressed enzymes were tested for permethrin hydrolytic activity using a radiometric partition assay for acid-labelled compounds, or a TLC based assay for those labelled in the alcohol moiety (Devonshire and Moores, 1982). […] The power of the analyses was increased by separating permethrin into its cis and trans isomers.
Preparative thin layer chromatography (TLC) on silica was used to separate the isomers into two enantiomer pairs: 1S/1R cis and 1S/1R trans. […] Enzyme preparations could then be assayed for the hydrolysis of each enantiomer pair.
This assay (Devonshire and Moores, 1982) is used for permethrin isomers. It relies on incubating the expressed esterase with radiolabelled substrate and then measuring the radioactive cyclopropanecarboxylate anion in the aqueous phase after extracting the unchanged substrate into organic solvent. Based on previous experience, the best extraction protocol utilises a 2:1 (by volume) mixture of methanol and chloroform. […] Subsequent addition of an excess of chloroform and buffer exceeds the capacity of the methanol to hold the phases together, so that the organic phase can be removed and the product measured in the aqueous phase. […]
The nature of data set [4]: Fluorometric determination of lipase activity. It counts as biochemical. The settings on record: 4-MU-palmitate 10^−4M; ± standard error of duplicate assays. From the text:
A fluorogenic assay was used to measure lipase activity of insect esterases or lipases, and mutants thereof. The fluorogenic substrate provides rapid reproducible methods for measuring enzymatic activity. Fatty acid esters (acylated) of 4-methylumbelliferone fluorophors are used as substrates for the identification of lipase activity. This assay uses the fluorophore 4-methylumbelliferyl palmitate (4-MU-palmitate) (structure provided below) and is a modification of the fluorometric esterase titration assay of Devonshire et al. (2002) and the method of Hamid et al. (1994) used for the rapid characterisation and identification of Mycobacteria. [drawing 4]
4-MU-palmitate is hydrolysed by a lipase to release the fluorescent 4-methylumbelliferone (4-MU), which can be measured by a fluorimeter.
A standard curve for 4-MU is prepared in each plate alongside the titrations. 25 μL 10^−2M dMU stock (19.8 mg/10 ml in 100% ethanol) was diluted with 2.475 ml (3×825 μl) ethanol to give a 10^−4M solution. This 10^−4M solution was used to prepare a standard curve from 0 to 1.0 μM in 0.1M phosphate buffer pH 7.0 (plus 0.05% or 0.5% ultrapure Triton X-100 (TX100) if present in cell extracts). This was done by dispensing 25 μl, 20 μl, 15 μl, 10 μl, 5 μl, 0 μl (plus ethanol to 25 μl) into tubes and adding 2.475 ml phosphate buffer (or phosphate buffer containing TX100 if required), then adding 100 μl per well. This gives 0.2, 0.4, 0.6, 0.8 and 1.0 uM in 0.25% TX100.
The samples were read on a Fluorostar fluorometer (BMG LabTechnologies) alongside the following titration reactions using the basic settings: excitation—355 nm, emission—460 nm, gain—zero, 10 cycles of 180 secs with shaking before each cycle.
For the assay, 20 μl of 5×10^−4 4-MU-palmitate (in 100% acetone) was to the wells that require substrate (II & III as defined in Table 4 below) and air dried. […] Cell extracts should be added immediately before readings start.
Corrected fluorescence (Fcorrected) was calculated by the following equations. […]

Data set [5] can be described thus: Hydrolysis of Type II pyrethroid, chloroform-methanol extraction assay. It counts as biochemical. The arrangement: key: —: Not substantially different from values obtained using control cell extracts. As to the method:
Since the TLC assay is more protracted than the chloroform-methanol extraction procedure, the latter (as described above for acid-labelled pyrethroids) was adopted to measure the 3-phenoxbenzoate anion produced from these substrates.
For all assays the molar amount of product formed was calculated from the known specific activity of the radiolabelled substrate. […] Assays at concentrations greater than 0.5 μM, which approximates the published aqueous solubility of permethrin, gave erratic results so precluding the measurement of Km and kcat. […] Assay conditions were therefore adjusted to measure the hydrolysis of the more-readily hydrolysed enantiomer in each pair. […] The same considerations about substrate solubility and proportionality of response to its concentration were assumed for all enzymes and substrates.
The specificity constant (ie kcat/Km) can therefore be calculated from the above equation using the initial hydrolysis rate (pmol/min, calculated from the known specific activity of the radiolabelled substrate) and the concentrations of substrate and enzyme in the assay. The diffusion-limited maximum value for a specificity constant is 10^8-10^9 M^−1sec^−1 (Stryer, 1981).

For the molecule `CC1(C)C(C=C(Cl)Cl)C1C(=O)OCc1cccc(Oc2ccccc2)c1` (stereo not drawn) [permethrin], the “published solubility in aqueous solution” value in data set [1] was 0.5 µM.

B1: E3WT: wild-type Lucilia cuprina E3 α-carboxylesterase (SEQ ID NO:1), baculovirus expressed (protein, listed as Lucilia cuprina)
chain: MNFNVSLMEKLKWKIKCIENKFLNYRLTTNETVVAETEYGKVKGVKRLTVYDDSYYSFEGIPYAQPPVGELRFKAPQRPTPWDGVRDCCNHKDKSVQVDFITGKVCGSEDCLYLSVYTNNLNPETKRPVLVYIHGGGFIIGENHRDMYGPDYFIKKDVVLINIQYRLGALGFLSLNSEDLNVPGNAGLKDQVMALRWIKNNCANFGGNPDNITVFGESAGAASTHYMMLTEQTRGLFHRGILMSGNAICPWANTQCQHRAFTLAKLAGYKGEDNDKDVLEFLMKAKPQDLIKLEEKVLTLEERTNKVMFPFGPTVEPYQTADCVLPKHPREMVKTAWGNSIPTMMGNTSYEGLFFTSILKQMPMLVKELETCVNFVPSELADAERTAPETLEMGAKIKKAHVTGETPTADNFMDLCSHIYFWFPMHRLLQLRFNHTSGTPVYLYRFDFDSEDLINPYRIMRSGRGVKGVSHADELTYFFWNQLAKRMPKESREYKTIERMTGIWIQFATTGNPYSNEIEGMENVSWDPIKKSDEVYKCLNISDELKMIDVPEMDKIKQWESMFEKHRDLF
As a reminder, the Km is the substrate concentration at which the rate is half of its maximum. Consider B1, for which, in data set [2], the α-NA activity kcat amounted to 248 s⁻¹ and the Km came out at 71 µM. Moreover, in data set [3], the “enantiomer preference for trans permethrin” value is recorded as “preference for the 1S trans enantiomer”. For the same molecule, the 4-MU-palmitate activity in data set [4] is listed as 0.0298 ± 0.0006^1 moles 4MU produced per sec per mole of enzyme. In data set [5], the “Specificity Constant (kcat/Km) 1R cis αR deltamethrin” value is “—”, the “Specificity Constant (kcat/Km) 1R cis αS deltamethrin” value is recorded as “—”, the “Specificity Constant (kcat/Km) 1S cis αR deltamethrin” value is “—^1” and the “Specificity Constant (kcat/Km) 1S cis αS deltamethrin” value is “—”.

B2: MpE4WT: wild-type Myzus persicae E4 α-carboxylesterase (SEQ ID NO:3) (protein, listed as Myzus persicae)
chain: MKNTCGILLNLFLFIGCFLTCSASNTPKVQVHSGEIAGGFEYTYNGRKIYSFLGIPYASPPVQNNRFKEPQPVQPWLGVWNATVPGSACLGIEFGSGSKIIGQEDCLFLNVYTPKLPQENSAGDLMNVIVHIHGGGYYFGEGILYGPHYLLDNNDFVYVSINYRLGVLGFASTGDGVLTGNNGLKDQVAALKWIQQNIVAFGGDPNSVTITGMSAGASSVHNHLISPMSKGLFNRAIIQSGSAFCHWSTAENVAQKTKYIANLMGCPTNNSVEIVECLRSRPAKAIAKSYLNFMPWRNFPFTPFGPTVEVAGYEKFLPDIPEKLVPHDIPVLISIAQDEGLIFSTFLGLENGFNELNNNWNEHLPHILDYNYTISNENLRFKTAQDIKEFYFGDKPISKETKSNLSKMISDRSFGYGTSKAAQHIAAKNTAPVYFYEFGYSGNYSYVAFFDPKSYSRGSSPTHGDETSYVLKMDGFYVYDNEEDRKMIKTMVNIWATFIKSGVPDTENSEIWLPVSKNLADPFRFTKITQQQTFEAREQSTTGIMNFGVAYH
Regarding B2, in data set [2], the α-NA activity kcat stood at 3 s⁻¹ and the Km was found to be 28 µM. Further, the “enantiomer preference for trans permethrin” value in data set [3] was “preference for the 1S trans enantiomer”. For the same molecule, the 4-MU-palmitate activity in data set [4] was 0.1051 ± 0.0033 moles 4MU produced per sec per mole of enzyme.

B3: EST23WT: wild-type Drosophila melanogaster EST23 α-carboxylesterase (SEQ ID NO:2) (protein)
chain: MNKNLGFVERLRGRLKTIEHKVQQYRQSTNETVVADTEYGQVRGIKRLSLYDVPYFSFEGIPYAQPPVGELRFKAPQRPIPWEGVRDCSQPKDKAVQVQFVFDKVEGSEDCLYLNVYTNNVKPDKARPVMVWIHGGGFIIGEANREWYGPDYFMKEDVVLVTIQYRLGALGFMSLKSPELNVPGNAGLKDQVLALKWIKNNCASFGGDPNCITVFGESAGGASTHYMMLTDQTQGLFHRGILQSGSAICPWAYNGDITHNPYRIAKLVGYKGEDNDKDVLEFLQNVKAKDLIRVEENVLTLEERMNKIMFRFGPSLEPFSTPECVISKPPKEMMKTAWSNSIPMFIGNTSYEGLLWVPEVKLMPQVLQQLDAGTPFIPKELLATEPSKEKLDSWSAQIRDVHRTGSESTPDNYMDLCSIYYFVFPALRVVHSRHAYAAGAPVYFYRYDFDSEELIFPYRIMRMGRGVKGVSHADDLSYQFSSLLARRLPKESREYRNIERTVGIWTQFAATGNPYSEKINGMDTLTIDPVRKSDEVIKCLNISDDLKFIDLPEWPKLKVWESLYDDNKDLLF
modifications: Drosophila melanogaster
On to B3, for which, in data set [2], the α-NA activity kcat was found to be 276 s⁻¹ and the Michaelis-Menten constant (Km) stood at 82 µM. For the same molecule, in data set [4], the 4-MU-palmitate activity is 0.0677 ± 0.0032 moles 4MU produced per sec per mole of enzyme. Further, in data set [5], the “Specificity Constant (kcat/Km) 1R cis αR deltamethrin” value is recorded as “—” and the “Specificity Constant (kcat/Km) 1R cis αS deltamethrin” value is listed as “—”.

Values taken from patent US20050176118A1, “Esterases with lipase activity” (priority 2002, published 2005).
